System: Abp1 PPIs
Experiment: DHFR-PCA of Abp1 SH3-swapped baits (Fig. 2B-D, S2C, S2F);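 as to Protein-protein interaction distance between Abp1 SH3-swapped baits, to ABP1: Euclidean distance between DHFR-PCA score profiles of the baits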;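 as to Protein-protein interaction distance between Abp1 SH3-swapped baits, to BEM1-2: Euclidean distance between DHFR-PCA score profiles of the baits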;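 as to Protein-protein interaction distance between Abp1 SH3-swapped baits, to BOI1: Euclidean distance between DHFR-PCA score profiles of the baits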;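 as to Protein-protein interaction distance between Abp1 SH3-swapped baits, to BZZ1-1: Euclidean distance between DHFR-PCA score profiles of the baits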
Type: cell-based, Saccharomyces cerevisiae
How it was run: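 Yeast DHFR-PCA in which Abp1 baits, carrying their SH3 replaced by CRISPR–Cas9 with one of 27 yeast SH3s or human CTTN, HCLS1 or DBNL SH3s, were mated against 575 SH3-associated DHFR F[3] preys plus 40 negative controls. Four tests were run per PPI. Diploids were selected twice (48 h, 30 °C), then grown 4 days on PCA selection media.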

[1] = number of PPIs, difference, Abp1 SH3-swapped with the listed SH3, Fig2D,S2F

B1: LSB3 (protein)
chain: MGINNPIPRSLKSETKKAAKILASFVKPNQVFGADQVIPPDVLKRAKGLAIITILKAGFLFSGRAGSGVIVARLKDGTWSAPSAIAMAGAGAGGMVGIELTDFVFILNTQDAVKSFSEFGTITLGGNVSVSAGPLGRSAEAAASASAGGVAAVFAYSKSKGLFAGVSVEGSAIIERREANRKFYGDNCTAKMILSGRIRPPPAVDPLFRVLESRAFNYRPSNGGRGSFDDDEDDYYDDDDYYNDIPSSFSSTDASSTRPNTRSTRRRAQSGSRYTFDDDDDDDDYGTGYSRNSRLAPTNSGGSGGKLDDPSGASSYYASHRRSGTAQSRARSSRNRWADDEYDDYDDDYESGYRRGNGRDRTKDREVDDLSNRFSKSRISSASTPQTSQGRFTAPTSPSTSSPKAVALYSFAGEESGDLPFRKGDVITILKKSDSQNDWWTGRVNGREGIFPANYVELV
modifications: left off: DHFR F[3], C-terminal, kept
B1 was tested, and the “Protein-protein interaction distance between Abp1 SH3-swapped baits, to ABP1” value (Abp1 bait with swapped SH3, distance to bait with ABP1 SH3, sheet Fig2C) was 13.53, the “Protein-protein interaction distance between Abp1 SH3-swapped baits, to BBC1” value (distance to Abp1 bait with BBC1 SH3, sheet Fig2C) was 13.63 and the “Protein-protein interaction distance between Abp1 SH3-swapped baits, to BEM1-1” value (distance to Abp1 bait with BEM1-1 SH3, sheet Fig2C) was 19.15. For the same molecule, the “Protein-protein interaction distance between Abp1 SH3-swapped baits, to BEM1-2” value (distance to Abp1 bait with BEM1-2 SH3, sheet Fig2C) was 36.03, the “Protein-protein interaction distance between Abp1 SH3-swapped baits, to BOI1” value (distance to Abp1 bait with BOI1 SH3, sheet Fig2C) was 16.12 and the “Protein-protein interaction distance between Abp1 SH3-swapped baits, to BOI2” value (distance to Abp1 bait with BOI2 SH3, sheet Fig2C) was 19.6. For the same molecule, the “Protein-protein interaction distance between Abp1 SH3-swapped baits, to BUD14” value (distance to Abp1 bait with BUD14 SH3, sheet Fig2C) was 22.11, the “Protein-protein interaction distance between Abp1 SH3-swapped baits, to BZZ1-1” value (distance to Abp1 bait with BZZ1-1 SH3, sheet Fig2C) was 10.79 and the “Protein-protein interaction distance between Abp1 SH3-swapped baits, to BZZ1-2” value (distance to Abp1 bait with BZZ1-2 SH3, sheet Fig2C) was 16.06. The “Protein-protein interaction distance between Abp1 SH3-swapped baits, to CDC25” value (distance to Abp1 bait with CDC25 SH3, sheet Fig2C) was 30.47, the “Protein-protein interaction distance between Abp1 SH3-swapped baits, to CTTN” value (distance to Abp1 bait with CTTN SH3, sheet Fig2C) was 16.7 and the “Protein-protein interaction distance between Abp1 SH3-swapped baits, to CYK3” value (distance to Abp1 bait with CYK3 SH3, sheet Fig2C) was 31.13. The “Protein-protein interaction distance between Abp1 SH3-swapped baits, to DBNL” value (distance to Abp1 bait with DBNL SH3, sheet Fig2C) was 10.88, the “Protein-protein interaction distance between Abp1 SH3-swapped baits, to FUS1” value (distance to Abp1 bait with FUS1 SH3, sheet Fig2C) was 23.48 and the “Protein-protein interaction distance between Abp1 SH3-swapped baits, to HCLS1” value (distance to Abp1 bait with HCLS1 SH3, sheet Fig2C) was 10.8. For the same molecule, the “Protein-protein interaction distance between Abp1 SH3-swapped baits, to HOF1” value (distance to Abp1 bait with HOF1 SH3, sheet Fig2C) was 34.67, the “Protein-protein interaction distance between Abp1 SH3-swapped baits, to HSE1” value (distance to Abp1 bait with HSE1 SH3, sheet Fig2C) was 12.29 and the “Protein-protein interaction distance between Abp1 SH3-swapped baits, to LSB1” value (distance to Abp1 bait with LSB1 SH3, sheet Fig2C) was 3.731. For the same molecule, the “Protein-protein interaction distance between Abp1 SH3-swapped baits, to LSB3” value (distance to Abp1 bait with LSB3 SH3, sheet Fig2C) was 0.00, the “Protein-protein interaction distance between Abp1 SH3-swapped baits, to MYO3” value (distance to Abp1 bait with MYO3 SH3, sheet Fig2C) was 9.625 and the “Protein-protein interaction distance between Abp1 SH3-swapped baits, to MYO5” value (distance to Abp1 bait with MYO5 SH3, sheet Fig2C) was 8.063. The “Protein-protein interaction distance between Abp1 SH3-swapped baits, to NBP2” value (distance to Abp1 bait with NBP2 SH3, sheet Fig2C) was 21.33, the “Protein-protein interaction distance between Abp1 SH3-swapped baits, to PEX13” value (distance to Abp1 bait with PEX13 SH3, sheet Fig2C) was 7.361 and the “Protein-protein interaction distance between Abp1 SH3-swapped baits, to PIN3” value (distance to Abp1 bait with PIN3 SH3, sheet Fig2C) was 5.817. For the same molecule, the “Protein-protein interaction distance between Abp1 SH3-swapped baits, to RVS167” value (distance to Abp1 bait with RVS167 SH3, sheet Fig2C) was 7.852, the “Protein-protein interaction distance between Abp1 SH3-swapped baits, to SDC25” value (distance to Abp1 bait with SDC25 SH3, sheet Fig2C) was 36.63 and the “Protein-protein interaction distance between Abp1 SH3-swapped baits, to SHO1” value (distance to Abp1 bait with SHO1 SH3, sheet Fig2C) was 11.76. The “Protein-protein interaction distance between Abp1 SH3-swapped baits, to SLA1-1” value (distance to Abp1 bait with SLA1-1 SH3, sheet Fig2C) was 32.92, the “Protein-protein interaction distance between Abp1 SH3-swapped baits, to SLA1-2” value (distance to Abp1 bait with SLA1-2 SH3, sheet Fig2C) was 23.82 and the “Protein-protein interaction distance between Abp1 SH3-swapped baits, to SLA1-3” value (distance to Abp1 bait with SLA1-3 SH3, sheet Fig2C) was 5.438. For the same molecule, the “Protein-protein interaction distance between Abp1 SH3-swapped baits, to YSC84” value (distance to Abp1 bait with YSC84 SH3, sheet Fig2C) was 3.425, the “PPIs gained by Abp1 - SH3-dependent PPIs gained by Abp1” value [1] was 37 and the “SH3-dependent PPIs - SH3-dependent PPIs gained by Abp1” value [1] was 15. The “SH3-dependent PPIs gained by Abp1” value (number of PPIs, Abp1 SH3-swapped with the listed SH3, DHFR-PCA, Fig2D,S2F) was 4.
